How the values were obtained:
[1] = system: mutant CALR neoepitope peptides; test: Binding of 4D7 to peptides covering regions of the immunizing neopeptide; set-up: species or system human
Experimental: B. Diluting concentrations of 4D7 to bound full-length 30 amino acid peptide compared to scrambled, C-terminal and N-terminal 11 amino acid peptides as shown in A (n=3). C. Scatchard analysis showing dissociation constant of 4D7 using I^125-labelled and unlabelled 4D7 bound to full-length 30 amino acid peptide (n=3). D. Histogram showing fluorescence intensity of 4D7 conjugated to phycoerythrin at a 4 μg/mL TF-1 TpoR CALR^del 61 vs TF-1 TpoR compared to unstained. E. TF-1 TpoR cells with endogenous wild type CALR cultured in the presence of TPO and 2, 10 or 20 μg/mL 4D7 anti-mutant CALR antibody or 20 μg/mL control IgG antibody (n=3). F. Proliferation curves of factor-independent TF-1 TpoR CALR^del61 cells cultured with 2, 10 or 20 μg/mL 4D7 or 20 μg/mL of control IgG antibody (n=3). G Proliferation curves of factor-independent TF-1 TpoR CALR^del52 cells cultured with 10 or 20 µg/mL 4D7 or 20 μg/mL of control IgG antibody (n=3). Data information: For panels E-G, bars represent standard error of the mean summarizing 3 independent experiments performed in triplicate, with a one-way ANOVA with Bonferroni correction used to determine statistical significance.

[2] = system: TF-1 TpoR CALR^del52 cells; test: Cell proliferation, trypan blue exclusion; format: cell-based, human; conditions: over 5 days at 2, 10 and 20 μg/mL
Experimental: (§1) In brief, cells were seeded at 5×10^4/mL in standard growth media, with any necessary cytokines, and the addition of 20 μg/mL IgG or 2, 10 or 20 μg/mL 4D7. Cells were seeded in triplicate and each well was counted in triplicate every 24 hours for 5 days using trypan blue exclusion.

[3] = system: TF-1 cells expressing TpoR alone (endogenous wild type CALR); test: Cell proliferation, trypan blue exclusion; format: cell-based, human; conditions: in presence of TPO; 2, 10 or 20 μg/mL
Experimental: as §1

[4] = system: primary CD34+ cells from patients with CALR mutant myelofibrosis; test: TPO-independent megakaryocyte colony formation on collagen-based medium (MegaCult); format: cell-based, human
Source text: Patient samples were collected with informed consent from the South Australian Cancer Research Biobank (SACRB: Adelaide, Australia). Primary CD34+ stem/progenitor cells from peripheral blood samples from patients with JAK2^V617F or CALR mutant myelofibrosis were purified by flow cytometry using CD34-APC antibody, anti-human CD45RA Brilliant Violet 605, anti-CD90 FITC, anti-human CD123-PE, anti-human CD38 PE-Cy7, or with CD34-APC antibody, anti-human CD3 FITC, anti-human CD19-PE (clone H1B19) and anti-human CD14 PE-Cy7.
For megakaryocyte differentiation assays, CD34+ cells derived from cord blood or from patient peripheral blood mononuclear fractions were plated in Megacult (MegaCult™-C Collagen and Medium with Lipids) with added IL-3 and IL-6 (10 ng/ml) in the presence or absence of 50 ng/mL TPO. Cells were plated at an initial density of 1800 cells/well and cultured for 12 days at 37° C. and 5% CO2. […] Culture media was replenished every 3 days and cells were assessed for megakaryocyte differentiation on day 12 using anti-human CD41/61 PE-Cy7 (Clone A2A9/6) and CountBright beads (Thermo Fisher) to enumerate cell numbers. […] Cells were seeded at approximately 100 cells per well and were cultured in the presence of 20 μg/mL 4D7 or control IgG antibody and scored for colony and blast forming units at 12-14 days.

[5] = system: ruxolitinib-resistant TF-1 TpoR CALR^del61 cells; test: Cell growth in liquid culture, trypan blue exclusion; format: cell-based, human; conditions: 20 μg/mL, 96 hours
Experimental: A. Graph showing effect of ruxolitinib on megakaryocyte differentiation at 50 and 100 nM in healthy CD34+ cells (n=4). B. Effect of 4D7 on TPO-dependent megakaryocyte differentiation of healthy CD34+ cells cultured with 20 μg/mL 4D7 or IgG control (n=4). C. Total numbers of hematopoietic colonies plated in MethoCult from healthy cord blood after treatment with 4D7 or IgG. CFU-GM, colony forming unit-granulocyte macrophage: BFU-E, blast forming unit-erythroid: CFU-GEMM, colony forming unit granulocyte, erythroid, monocyte, megakaryocyte (n=3).D. CD41+megakaryocyte colonies from healthy CD34+ cells observed on collagen matrix after 4D7 treatment. Colonies were cultured in TPO, SCF. IL-9 and IL-3. E. Number of megakaryocyte colony forming units observed in MegaCult assay after treatment of healthy cord blood CD34+ cells with either IgG or 4D7 (n=3). F. Western blot showing signalling in ruxolitinib-resistant TF-1 TpoR CALR^del61 compared to ruxolitinib sensitive TF-1 TpoR CALR^del61 cells after treatment with 100 nM ruxolitinib for 16 hours or 30 minutes and blotted for phospho-STAT5, total STAT5, phospho-ERK, total ERK and actin as indicated. Ruxolitinib-sensitive cells were non-viable after 16 hours of treatment. […] Cells counted using Trypan Blue exclusion with replicate wells (n=3). […]

B1: 4D7: rat monoclonal IgG2a antibody against the mutant CALR neoepitope; VH SEQ ID NO: 5, VL SEQ ID NO: 7 (antibody, listed as Rattus rattus, V domains shown)
VH: QVQLQQSGAELAKPGSSVKISCKASGYTFTNYDMSWIKQRPGQALEWIGAINPGNGVTDYNEKFRGKATLTVDKSSSTAFMQLSSLTPEDTAVYHCAREYRDNYGYFDYWGQGVMVTVSS
VL: DIVLTQTPVSLSVTLGDQASISCRSSQSLEYSDGYTYLDWFLQKPGQSPQLLIYEVSSRFSGVPDRFIGRGSGTDFTLKISRVEPEDLGVYYCFQATHDPFTFGSGTKLEIK
[1]; C-terminal 11 amino acid peptide
  binding to C-terminal portion of the immunogen: no binding
[1]; peptides covering different regions of the neopeptide
  region of the immunizing neopeptide to which binding was mapped: 11 amino acids of the N-terminus
[1]; scrambled peptide
  binding to scrambled peptide: no binding
[2]
  TPO-independent cell growth: blockade of TPO-independent cell growth
[3]
  inhibition of proliferation: no inhibition
[4]; 20 μg/mL vs IgG, n=4 patient samples
  decrease of primary TPO-independent megakaryocyte colonies (colony-forming unit-mega): 46%
[4]; patient with a type 2 mutation
  size of megakaryocyte colonies: substantially smaller
[5]
  inhibitory activity on cell growth in liquid culture: strong inhibitory activity
